Patent publication US20030206925A1 (Pfizer, published 2003)

T1: measles virus nucleocapsid (N) protein, Edmonston wild-type (measles virus (Edmonston wild-type), UniProt P04851 1-525)
T1 sequence (looked up): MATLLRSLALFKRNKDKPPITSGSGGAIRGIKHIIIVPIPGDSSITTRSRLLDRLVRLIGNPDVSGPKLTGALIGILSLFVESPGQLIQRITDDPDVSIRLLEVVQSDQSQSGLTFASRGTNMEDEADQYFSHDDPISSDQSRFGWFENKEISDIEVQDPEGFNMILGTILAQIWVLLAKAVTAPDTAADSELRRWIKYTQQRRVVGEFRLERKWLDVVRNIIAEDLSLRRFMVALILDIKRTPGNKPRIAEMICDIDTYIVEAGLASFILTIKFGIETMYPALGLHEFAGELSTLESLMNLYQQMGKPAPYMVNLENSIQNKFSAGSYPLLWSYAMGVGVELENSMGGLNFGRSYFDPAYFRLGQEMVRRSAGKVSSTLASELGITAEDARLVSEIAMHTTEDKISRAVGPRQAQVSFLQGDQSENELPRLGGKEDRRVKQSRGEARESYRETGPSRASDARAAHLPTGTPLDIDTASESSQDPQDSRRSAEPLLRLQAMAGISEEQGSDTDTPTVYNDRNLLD


Biological target: T1, measles virus nucleocapsid (N) protein, …
Assay: separate experiment, method not described, data not shown

Row | Binder | binding result
1 | measles virus V protein mutant haV-11 (deletion of amino acids 1-20 and 208-230) (other, Made in the pMV-haV-wt backbone by deletion mutagenesis) MAYPYDVPDYAAEPIGSLAIEEAMAAWSEISDNPGQERATCREEKAGSSGLSKPCLSAIGSTEGGAPRIRGQGPGESDDDAETLGIPPRNLQASSTGLQCYYVYDHSGEAVKGIQDADSIMVQSGLDGDSTLSGGDNESENSDVDIGEPDTEGYAITDRGSAPISMGFRASDVETAEGGEIHELLRLQSRGNNFPKLEGHRREISLIWNGDRVFIDRWCNPMCSKVTLGTIRARCTCGECPRVCEQCRTDTGVDTRIWYHNLPEIPE | no binding
2 | measles virus V protein mutant haV-9 (deletion of amino acids 1-20) (other, Made in the pMV-haV-wt backbone by deletion mutagenesis) MAYPYDVPDYAAEPIGSLAIEEAMAAWSEISDNPGQERATCREEKAGSSGLSKPCLSAIGSTEGGAPRIRGQGPGESDDDAETLGIPPRNLQASSTGLQCYYVYDHSGEAVKGIQDADSIMVQSGLDGDSTLSGGDNESENSDVDIGEPDTEGYAITDRGSAPISMGFRASDVETAEGGEIHELLRLQSRGNNFPKLEKTLNVPPPPDPGRASTSETPIKKGHRREISLIWNGDRVFIDRWCNPMCSKVTLGTIRARCTCGECPRVCEQCRTDTGVDTRIWYHNLPEIPE | no binding
